Measurements taken from the supplement of paper PMC9732359.
± gives the uncertainty stated by the source.

Assay: protein stability index of a GFP-peptide fusion (yeast GPS) (PSI 1-4); higher = more stable; sorted into four equal gates, so the index is relative within each strain
How it was run: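 Plasmids in a pooled yeast library fused tiled 17-residue yeast protein peptides downstream of GFP and also expressed Cherry. Mid-log cultures grown without leucine were sorted into four equal gates by GFP/Cherry fluorescence ratio. Each gate's plasmids were PCR-amplified and Illumina-sequenced, and reads were matched to strains by barcodes. The protein stability index is derived by multiplying each gate's read frequency by its gate number and summing the results.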

| Sequence | protein stability index (doa10∆) | protein stability index (pdr5∆) | protein stability index (san1∆) | protein stability index (ubr1∆) |
| --- | --- | --- | --- | --- |
| AEEEEESDDDMGFGLFD [RPP0] | 3.36 ± 0.09 | 2.96 ± 0.12 | 3.24 ± 0.046 | 3.25 ± 0.065 |
| KRHSYAQSSHIRAIRKV [RPS1A] | 2.399 ± 0.019 | 2.336 ± 0.017 | 2.423 ± 0.022 | 2.446 ± 0.015 |
| LMLKKLKNSIMSFIFPS [YML031W/NDC1] | 2.21 ± 0.058 | 2.3 ± 0.066 | 2.28 ± 0.073 | 2.37 ± 0.062 |
| QYILQIVSFIVNCFHED [YJL039C/NUP192] | 1.42 ± 0.061 | 1.91 ± 0.062 | 2.18 ± 0.077 | 2.3 ± 0.057 |
| KSSAFVIDIGASGCNVT [ARP7] | 1.81 ± 0.039 | 2.46 ± 0.063 | 2.17 ± 0.067 | 2.55 ± 0.045 |
| SDSSKPAFSFGTKSNEK [YJL041W/NSP1] | 2.97 ± 0.073 | 2.19 ± 0.058 | 2.79 ± 0.076 | 2.75 ± 0.041 |
| NELLLPSELNQLKMVNE [RPC82] | 3.14 ± 0.12 | 2.94 ± 0.13 | 3.25 ± 0.13 |  |
| KDHDLKIPLPEVHDLIG [POP1] | 3.11 ± 0.12 | 2.91 ± 0.14 | 2.73 ± 0.21 | 2.54 ± 0.11 |
| HCITSITLALADAGIEL [MTR3] | 1.5 ± 0.071 | 1.86 ± 0.094 |  | 1.55 ± 0.097 |
| EGVEYSFLHVDDKLAYI [POP8] | 1.86 ± 0.097 | 2.1 ± 0.088 | 1.86 ± 0.11 | 2.04 ± 0.074 |
| HFFSKSCSFFAKLSDTL [NUT1] | 2.06 ± 0.047 | 1.77 ± 0.041 | 1.69 ± 0.085 | 1.95 ± 0.035 |
| GGTSLFGNTSTSSAPAQ [YGL172W/NUP49] | 2.17 ± 0.17 | 2.19 ± 0.096 |  | 2.15 ± 0.091 |
| WELYTDFNEIVQYLSGA [POP3] | 2.55 ± 0.13 | 2.31 ± 0.12 | 2.4 ± 0.075 | 2.43 ± 0.075 |
| FKQIKSADCELLGIDAT [RPO31] | 1.62 ± 0.083 | 1.8 ± 0.089 | 1.42 ± 0.16 | 2.08 ± 0.053 |
| NASDALKGRVVEVCLAD [RPS1B] | 3.34 ± 0.069 | 3.33 ± 0.057 | 3.12 ± 0.051 | 3.03 ± 0.054 |
| RLISQSLLASKSTYRTP [RIP1] | 2.79 ± 0.12 | 3.04 ± 0.21 | 2.82 ± 0.22 | 2.45 ± 0.14 |
| ETAERNIIQAKRDAKAA [RPL7A] |  | 2.06 ± 0.21 | 1.93 ± 0.16 |  |
| AEASFTFGTKHAADSQN [YLR335W/NUP2] | 3.27 ± 0.14 | 3.01 ± 0.13 | 3.03 ± 0.092 | 2.67 ± 0.091 |
| NANTVFSERAAMFAALQ [SWI1] | 2.31 ± 0.049 | 2.32 ± 0.043 | 2.4 ± 0.055 | 2.38 ± 0.032 |
| YDRHQSSSKQQSRLFIN [SMC4] |  |  |  | 3.31 ± 0.2 |
| EVILVDPQHKAIRRDAR [RPL15A] | 2.87 ± 0.088 | 3.15 ± 0.13 | 2.78 ± 0.28 | 2.97 ± 0.17 |
| RDCIDISIFSTPGSVSL [PRP8] | 2.79 ± 0.11 | 2.88 ± 0.11 | 2.45 ± 0.1 | 3.02 ± 0.12 |
| SLPFLLRHMPLASIPDI [SSN2] | 1.94 ± 0.072 | 1.69 ± 0.055 | 1.5 ± 0.072 | 1.44 ± 0.045 |
| NENFRLVYDVKGRFAVH [RPS4A] | 3.41 ± 0.14 | 2.55 ± 0.17 | 3.32 ± 0.12 | 3.25 ± 0.13 |
| LQQAKLRESEISQKLTN [SMC3] | 3.18 ± 0.076 | 3.17 ± 0.073 | 3.15 ± 0.087 | 2.97 ± 0.069 |
| ITNKHQEGLAKFGACVA [RPN2] | 1.78 ± 0.054 | 1.97 ± 0.038 | 2.54 ± 0.092 | 2.51 ± 0.035 |

| Sequence | protein stability index (doa10∆) | protein stability index (pdr5∆) | protein stability index (san1∆) | protein stability index (ubr1∆) |
| --- | --- | --- | --- | --- |
| RTQPWSIMPDLYFYRDP [RPS0A] | 2.55 ± 0.051 | 2.85 ± 0.056 | 2.85 ± 0.043 | 2.6 ± 0.055 |
| EGSWDRGIPRISTLFQR [PRP8] | 2.79 ± 0.19 |  | 3.24 ± 0.14 | 3.06 ± 0.11 |
| HTLCNRCGRRSFHVQKK [RPL37A] | 2.98 ± 0.035 | 2.72 ± 0.048 | 2.83 ± 0.031 | 2.85 ± 0.029 |
| SEFANQNQGGAQAPFDI [ROX3] |  |  | 3.28 ± 0.22 | 3.48 ± 0.094 |
| YNRYRDLMISCLMNQET [MTR3] | 2.44 ± 0.062 | 2.56 ± 0.063 | 2.31 ± 0.084 | 2.5 ± 0.062 |
| IKVENLNDTTEKSKALE [SMC2] | 3.07 ± 0.082 | 3.3 ± 0.092 | 3.35 ± 0.052 | 3.25 ± 0.059 |
| KTICNLLISDTESNELI [IRR1] | 2.74 ± 0.063 | 2.73 ± 0.075 | 2.4 ± 0.055 | 2.68 ± 0.065 |
| QAQAQAQAAQAAQAQAQ [GAL11] | 2.84 ± 0.092 | 3.02 ± 0.14 | 2.93 ± 0.066 | 3.04 ± 0.11 |
| NTTKTADTKAPTFTFGS [YLR335W/NUP2] | 3.36 ± 0.08 | 3.33 ± 0.063 | 3.21 ± 0.061 | 3.38 ± 0.057 |
| LNATTAMDLAQMLIQGV [BRR2] | 3.08 ± 0.18 | 1.68 ± 0.11 | 2.58 ± 0.094 | 1.55 ± 0.083 |
| GWSLVGRILQNLLHSYM [YML103C/NUP188] | 1.85 ± 0.087 | 1.18 ± 0.06 | 1.18 ± 0.092 | 1.05 ± 0.03 |
| LTVFYAIKKFKTEKDGV [SSN3] | 2.17 ± 0.12 | 1.74 ± 0.057 | 2.42 ± 0.061 | 1.97 ± 0.085 |
| YQLNGVAPFMIKYEFNG [YMR129W/POM152] | 2.63 ± 0.097 | 2.64 ± 0.075 | 2.62 ± 0.082 | 2.73 ± 0.057 |
| VTEDGTVVTVVSTAKFS [RPL22A] | 2.52 ± 0.13 | 2.81 ± 0.14 | 2.2 ± 0.12 | 2.59 ± 0.061 |
| IDIDKLIQLGVKPLESS [SRP72] | 3.19 ± 0.086 | 2.87 ± 0.068 | 3.04 ± 0.055 | 2.82 ± 0.054 |
| ILPQQSKLKLKNLLRKN [ECM29] | 2.39 ± 0.089 | 1.79 ± 0.051 | 2.01 ± 0.07 | 2.25 ± 0.074 |
| QLNGNETFSTSAHQSPI [SNF2] | 3.31 ± 0.11 | 2.99 ± 0.075 | 3.16 ± 0.072 | 3.22 ± 0.054 |
| SSPEEPFMSYSPQLTAI [SNF12] | 2.45 ± 0.065 | 2.79 ± 0.063 | 2.7 ± 0.066 | 2.77 ± 0.051 |
| KSSILTVLQKNSLLLDS [YML103C/NUP188] | 1.84 ± 0.056 | 1.71 ± 0.08 | 1.56 ± 0.075 | 2.36 ± 0.085 |
| TESVPEPKLFRMRIFAS [RPL20A] | 3.36 ± 0.13 | 3.02 ± 0.18 | 3.02 ± 0.13 | 1.21 ± 0.24 |
| LPDELTLSYDDISAAIV [DLS1] | 2.56 ± 0.055 | 2.53 ± 0.061 | 2.58 ± 0.073 | 2.67 ± 0.05 |
| SNSAGTSLFGSSSAQQT [YJL041W/NSP1] | 3.15 ± 0.069 | 3.08 ± 0.079 | 3.12 ± 0.073 | 3.17 ± 0.052 |
| RTMYFILDGQDVEENRS [YJR042W/NUP85] | 2.45 ± 0.077 | 3.03 ± 0.089 | 3.22 ± 0.086 | 3.23 ± 0.044 |
| IKESSKKIKGKSIQDIV [SRP21] | 3.26 ± 0.077 | 3.31 ± 0.092 | 3.33 ± 0.046 | 3.14 ± 0.12 |
| QRKTNGASNGDDSNGGN [BRN1] | 3.12 ± 0.14 | 2.92 ± 0.23 | 3.71 ± 0.17 | 3.64 ± 0.15 |
| VPGMPAPIKKIIERYIK [PRP8] | 3.37 ± 0.24 | 3.23 ± 0.13 | 2.95 ± 0.11 | 3.16 ± 0.13 |
